We go through 18 molecules from US20240101668A1 (WUGEN, published 2024).

Test [1] deals with T1, huFLT3-T227-His (human, UniProt P36888 27-543).
T1 construct: extracellular domain; also called FLT3 WT
As to the kind of experiment: BLI. For orientation: In BLI a coated tip is dipped into the sample, and binding shifts an interference pattern.
Experimental: (§1) Discovered scFvs were analyzed for binding to huCD33-R69-His or huCD33-G69-Fc recombinant proteins (for anti-CD33 scFvs; for CLL-1 scFvs, huCLL1-K244-Avi-Tev-His or huCLL1-Q244-Avi-Tev-His were used; for FLT3, huFLT3-T227-His or huFLT3-M227-Fc were used) using BLI on a ForteBio Octet HTX instrument. Streptavidin-coated biosensors were loaded with biotinylated anti-V5 tag monoclonal antibody for 5 min and were then quenched and blocked with 20 μM amine-PEG2-Biotin for 5 min. scFvs were captured on biosensors from scFv clone periplasmic extracts. huCD33 (or huCLL-1, or huFLT3) proteins were then associated with the captured scFvs for 2 minutes, followed by dissociation with buffer (1×HBST [10 mM HEPES pH 7.4, 150 mM NaCl, 0.05% Tween-20], 1 g/L BSA) for 5 minutes. […] Data was fitted with 1:1 Langmuir equation and off-rate values were reported.

For test [2], the target named is T2, huFLT3-M227-Fc (human, UniProt P36888 27-543).
T2 construct: extracellular domain; also called FLT3 Mutant
Kind of test: BLI.
Experimental: as §1

Test [3] addresses T3, huCD33-G69-Fc recombinant protein (human, UniProt P20138 18-259).
T3 construct: extracellular domain; also called CD33 R69G
Kind of test: BLI.
Experimental: as §1

The target of test [4] is T4, huCD33-G69 stably expressed on Jurkat cells (human, UniProt P20138 18-364).
T4 construct: whole, on cells; >200,000 receptors per cell; also called CD33 Mutant; CD33 R69G
Kind of test: FACS on cells.
Experimental: (§2) Jurkat cells were engineered to stably express either the huCD33-R69 or huCD33-G69 variant at >200,000 receptors per cell. Parental, huCD33-R69, and huCD33-G69 Jurkat cell lines were stained with differing levels of CellTrace Violet Cell Proliferation Kit (ThermoFisher, cat. #C34557) to barcode each cell line. Barcoded Jurkat cell lines were fixed with paraformaldehyde and incubated with myc-labeled scFv periplasmic extracts and a secondary anti-myc PE-conjugated monoclonal antibody. Appropriate positive and negative controls were used. Stained cells were analyzed by flow cytometry (CytoFLEX, Beckman Coulter, Inc.) and binding was assessed by change in PE mean fluorescence intensity (MFI) of the barcoded cell populations.

Test [5] concerns the target T5, huCD33-R69 stably expressed on Jurkat cells (human, UniProt P20138 18-364).
T5 construct: whole, on cells; >200,000 receptors per cell; also called CD33 WT; CD33^ARG69
As to the kind of experiment: FACS on cells.
Experimental: as §2

The target in test [6] is T6, huFLT3-M227 stably expressed on Ramos cells (human, UniProt P36888 27-993).
T6 construct: whole, on cells; also called FLT3 Mutant
As to the kind of experiment: FACS on cells.

In test [7] the target is T7, huFLT3-T227 stably expressed on Ramos cells (human, UniProt P36888 27-993).
T7 construct: whole, on cells; also called FLT3 WT
As to the kind of experiment: FACS on cells.
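For geometric mean MFI fold change over Jurkat parental in this document: fixed Jurkat cells bearing either CD33 variant, barcoded by dye, exposed to myc-tagged scFv periplasmic extracts, detected with anti-myc PE antibody and read by flow cytometry.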

T4 sequence (P20138 18-364 R69G): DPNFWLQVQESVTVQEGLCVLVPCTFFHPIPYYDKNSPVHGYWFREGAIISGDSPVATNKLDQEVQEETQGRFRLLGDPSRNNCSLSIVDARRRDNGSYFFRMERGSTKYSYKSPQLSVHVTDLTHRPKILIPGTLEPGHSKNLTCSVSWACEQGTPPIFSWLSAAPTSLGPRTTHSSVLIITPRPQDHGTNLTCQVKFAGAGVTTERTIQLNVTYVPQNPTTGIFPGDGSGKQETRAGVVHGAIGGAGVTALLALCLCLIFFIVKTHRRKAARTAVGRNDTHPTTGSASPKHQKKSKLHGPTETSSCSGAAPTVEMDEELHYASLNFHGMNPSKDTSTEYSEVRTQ
T5 sequence (P20138 18-364): as the sequence (P20138 18-364 R69G) above, with G52R counted along it
T3 sequence (P20138 18-259 R69G): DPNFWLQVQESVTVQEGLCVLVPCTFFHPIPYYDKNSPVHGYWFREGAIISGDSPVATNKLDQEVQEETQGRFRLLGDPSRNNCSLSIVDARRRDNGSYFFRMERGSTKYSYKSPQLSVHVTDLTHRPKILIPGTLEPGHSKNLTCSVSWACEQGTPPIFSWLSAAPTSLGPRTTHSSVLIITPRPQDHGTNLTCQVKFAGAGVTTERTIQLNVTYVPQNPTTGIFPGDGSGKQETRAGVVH

B1: Polypeptide No. 252 (scFv, V domains shown)
VH: QVQLVQSGAEVKKPGSSVKVSCKASGYTLTDLSIHWVRQAPGQGLEWVGGIIPMSGTANYAQKFQGRVTITADESTSTAYMELSSLRSEDTAVYYCARSSSSWPKYFQHWGQGTLVTVSS
VL: not shown
notes: scFv
In the case of B1, the binding result in test [1] and in test [2] was “binds” in each case.

B2: Polypeptide No. 23 (scFv, V domains shown)
VH: QVQLVQSGAEVKKPGASVKVSCKASGYPFTAHYIHWVRQAPGQGLEWMGWINPNSGGTNYAQKFQGRVTMTRDTSTSTVYMELSSLRSEDTAVYYCARDVEMATIGAYWYFDLWGRGTLVTVSS
VL: DIQMTQSPSSLSASVGDRVTITCRASQGINNWLAWYQQKPGKAPKLLIYDASNLETGVPSRFSGSGSGTDFTLTISSLQPEDFATYYCQQANSFPPTFGQGTKLEIKR
notes: scFv
As to B2, the binding result in test [3] is reported as “no binding”. Further, the figures for the “geometric mean MFI fold change over Jurkat parental” value (from here on “geometric mean MFI fold change”) in test [4] and in test [5] were less than 2 fold and 2 to 10 fold, respectively.

B3: Polypeptide No. 1 (scFv, V domains shown)
VH: QVQLVQSGAEVKKPGASVKVSCKASGYSFTGYYIHWVRQAPGQGLEWMGWINPNSGGTNYAQKFQGRVTMTRDTSTSTVYMELSSLRSEDTAVYYCARDQWDGYNSGYFDYWGQGTLVTVSS
VL: DIQMTQSPSSLSASVGDRVTITCRASQTINDWLAWYQQKPGKAPKLLIYSASTLHSGVPSRFSGSGSGTDFTLTISSLQPEDFATYYCQQAYSTPWTFGQGTKVEIKR
notes: scFv
Turning to B3, in test [3], the binding result is reported as “no binding”. Also, the “geometric mean MFI fold change” value in test [4] was less than 2 fold; in test [5], more than 30 fold.

B4: Polypeptide No. 221 (scFv, V domains shown)
VH: QVQLVQSGAEVKKPGASVKVSCKASGYTFTDNYMHWVRQAPGQGLEWMGWMTPDSNNTGFAQNFQGRVTMTRDTSTSTVYMELSSLRSEDTAVYYCALGDGPFGMDVWGQGTTVTVSS
VL: DIVMTQSPLSLPVTPGEPASISCRSSQSLLHSNGYNYLDWYLQKPGQSPQLLIYGASYLQSGVPDRFSGSGSGTDFTLKISRVEAEDVGVYYCMQALQGPITFGQGTKVEIKR
notes: scFv
In the case of B4, the binding result in test [1] is listed as “no binding”. In addition, the results for the “FACS geometric mean fold change over Jurkat parental” value (“FACS geometric mean fold change” for short) in test [6] and in test [7] were 2 to 10 fold and less than 2 fold, respectively.

B5: Polypeptide No. 236 (scFv, V domains shown)
VH: QVQLVQSGAEVKKPGSSVKVSCKASGGTFSSYAISWVRQAPGQGLEWMGGIIPILGIANYAQKFQGRVTITADESTSTAYMELSSLRSEDTAVYYCAHVDGYGMDVWGQGTTVTVSS
VL: EIVMTQSPATLSVSPGERATLSCRASQSVSSNLAWYQQKPGQAPRLLIYDVSSRATGIPARFSGSGSGTEFTLTISSLQSEDFAVYYCQQLDAYPLTFGGGTKVEIKR
notes: scFv
As for B5, the binding result in test [1] and in test [2] was “binds” in each case.

B6: Polypeptide No. 227 (scFv, V domains shown)
VH: QVQLVQSGAEVKKPGSSVKVSCKASGYTLNELFMHWVRQAPGQGLEWVGGIIPMSGTTFYAQTFQGRVTITADESTSTAYMELSSLRSEDTAVYYCAKGVRQYSYGRYYYGMDVWGQGTLVTVSS
VL: DIQMTQSPSSLSASVGDRVTITCRASQSVSSYLNWYQQKPGKAPKLLIYGASNLQSGVPSRFSGSGSGTDFTLTISSLQPEDFATYYCQQSYTTPWTFGQGTRLEIKR
notes: scFv
Consider B6, for which the binding result in test [1] and in test [2] was “binds” in each case.

B7: Polypeptide No. 203 (scFv, V domains shown)
VH: QVQLVQSGAEVKKPGSSVKVSCKASGYTLTELSMHWVRQAPGQGLEWMGRIIPISGTANYAQKFQGRVTITADESTSTAYMELSSLRSEDTAVYYCARAARYCSSTSCYWRDGMDVWGQGTTVTVSS
VL: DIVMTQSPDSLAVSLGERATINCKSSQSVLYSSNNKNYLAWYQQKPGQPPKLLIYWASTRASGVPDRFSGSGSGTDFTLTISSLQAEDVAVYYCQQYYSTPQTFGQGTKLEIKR
notes: scFv
In the case of B7, the binding result in test [1] is on record as “no binding”. In test [7], the “FACS geometric mean fold change” value is less than 2 fold.

B8: Polypeptide No. 232 (scFv, V domains shown)
VH: QVQLVQSGAEVKKPGASVKVSCKASGYTFTSYGIHWVRQAPGQGLEWMGGIIPIFGTASYAQKFQGRVTMTRDTSTSTVYMELSSLRSEDTAVYYCTRSNGIAAAGTHWYFDLWGRGTLVTVSS
VL: DIQMTQSPSSLSASVGDRVTITCRASQNIANSLNWYQQKPGKAPKLLIYAASSLQSGVPSRFSGSGSGTDFTLTISSLQPEDFATYYCQQYSSYPPTFGPGTKVDIKR
notes: scFv
Take B8: the binding result in test [1] and in test [2] was “binds” throughout.

B9: Polypeptide No. 234 (scFv, V domains shown)
VH: QVQLVQSGAEVKKPGSSVKVSCKASGHTFTAYYMHWVRQAPGQGLEWMGWMSPYSGNTGYAQNFQGRVTITADESTSTAYMELSSLRSEDTAVYYCARATRGTIQHWGQGTLVTVSS
VL: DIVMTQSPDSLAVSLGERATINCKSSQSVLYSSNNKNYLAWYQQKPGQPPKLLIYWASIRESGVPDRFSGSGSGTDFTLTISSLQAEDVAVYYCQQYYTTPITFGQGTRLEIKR
notes: scFv
On to B9, for which the binding result in test [1] and in test [2] was “binds” throughout.

B10: Polypeptide No. 216 (scFv, V domains shown)
VH: QVQLVQSGAEVKKPGSSVKVSCKASGNTFTMYYMHWVRQAPGQGLEWVGAIIPISGTVIYARKFQGRVTITADESTSTAYMELSSLRSEDTAVYYCARLSGGRMYDAFDIWGQGTTVTVSS
VL: not shown
notes: scFv
As for B10, the binding result in test [1] and in test [2] was “binds” in each case.

B11: Polypeptide No. 21 (scFv, V domains shown)
VH: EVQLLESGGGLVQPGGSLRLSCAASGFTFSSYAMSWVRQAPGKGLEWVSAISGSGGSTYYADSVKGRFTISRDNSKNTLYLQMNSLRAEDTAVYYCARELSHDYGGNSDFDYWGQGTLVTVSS
VL: DIQMTQSPSSLSASVGDRVTITCQASQDISNNLNWYQQKPGKAPKLLIYAASGLQSGVPSRFSGSGSGTDFTLTISSLQPEDFATYYCQQANSFPLTFGGGTKVEIKR
notes: scFv
With B11, the binding result in test [3] was “no binding”. In addition, the “geometric mean MFI fold change” value in test [4] was less than 2 fold; in test [5], 2 to 10 fold.

B12: Polypeptide No. 22 (scFv, V domains shown)
VH: QVQLVQSGAEVKKPGASVKVSCKASGYTFTDYYIHWVRQAPGQGLEWMGWINPNSGGTNYAQEFQGRVTMTRDTSTSTVYMELSSLRSEDTAVYYCARDHRIAVAGSYFDYWGQGTLVTVSS
VL: DIQMTQSPSSLSASVGDRVTITCRASRSIRTWLAWYQQKPGKAPKLLIYAASSLQTGVPSRFSGSGSGTDFTLTISSLQPEDFATYYCQQSYSTPYTFGQGTKLEIKR
notes: scFv
As to B12, the binding result in test [3] is “no binding”. Moreover, the “geometric mean MFI fold change” value in test [4] was less than 2 fold; in test [5], 2 to 10 fold.

B13: Polypeptide No. 25 (scFv, V domains shown)
VH: QVQLVQSGAEVKKPGASVKVSCKASGYTFTGYYMHWVRQAPGQGLEWMGRINPNGGSTTYAQKFQGRVTMTRDTSTSTVYMELSSLRSEDTAVYYCARDDFYYYYLDFWGKGTTVTVSS
VL: DIQMTQSPSSLSASVGDRVTITCRASQSINDWLAWYQQKPGKAPKLLIYAASNLQSGVPSRFSGSGSGTDFTLTISSLQPEDFATYYCQQGYSTPPTFGQGTKVEIKR
notes: scFv
Regarding B13, in test [3], the binding result is reported as “no binding”. The “geometric mean MFI fold change” value in test [4] was less than 2 fold; in test [5], more than 30 fold.

B14: Polypeptide No. 209 (scFv, V domains shown)
VH: EVQLLESGGGLVQPGGSLRLSCAASGFAFSSYVLHWVRQAPGKGLEWVAGIWVDGHNKDYADSVKGRFTISRDNSKNTLYLQMNSLRAEDTAVYYCAREFGAAGSFQHWGQGTLVTVSS
VL: DIQMTQSPSSLSASVGDRVTITCRASQSISTWLAWYQQKPGKAPKLLIYDASKLETGVPSRFSGSGSGTDFTLTISSLQPEDFATYYCQQSYTTPYTFGQGTKVEIKR
notes: scFv
Consider B14, for which the binding result in test [1] and in test [2] was “binds” each time.

B15: Polypeptide No. 202 (scFv, V domains shown)
VH: QVQLVQSGAEVKKPGASVKVSCKASGYTFTNYYMHWVRQAPGQGLEWMGVINPSGGSTNYAQKFQGRVTMTRDTSTSTVYMELSSLRSEDTAVYYCARAGVGAFHIWGQGTMVTVSS
VL: DIQMTQSPSSLSASVGDRVTITCRASQSIRSWLAWYQQKPGKAPKLLIYDASNLETGVPSRFSGSGSGTDFTLTISSLQPEDFATYYCQQIYSLPRTFGQGTKVEIKR
notes: scFv
With B15, in test [1], the binding result is listed as “no binding”. Further, the “FACS geometric mean fold change” value in test [6] is 2 to 10 fold; in test [7], less than 2 fold.

B16: Polypeptide No. 217 (scFv, V domains shown)
VH: QVQLVQSGAEVKKPGSSVKVSCKASGYTFTTFYLHWVRQAPGQGLEWIGGIIPMSGTANYAQKFQGRVTITADESTSTAYMELSSLRSEDTAVYYCASGGENGMDVWGQGTTVTVSS
VL: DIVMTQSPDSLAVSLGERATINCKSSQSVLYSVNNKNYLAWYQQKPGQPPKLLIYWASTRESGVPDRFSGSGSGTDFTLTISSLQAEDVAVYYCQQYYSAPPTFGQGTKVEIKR
notes: scFv
Consider B16, for which the binding result in test [1] and in test [2] was “binds” throughout.

B17: Polypeptide No. 230 (scFv, V domains shown)
VH: QVQLVQSGAEVKKPGSSVKVSCKASGGTFSSNAINWVRQAPGQGLEWMGGIIPLFGTTNYAQKFQGRVTITADESTSTAYMELSSLRSEDTAVYYCARVLSGWYGTYYFDYWGQGTLVTVSS
VL: EIVMTQSPATLSVSPGERATLSCRASQSVSADYIAWYQQKPGQAPRLLIYDVSTRASGIPARFSGSGSGTEFTLTISSLQSEDFAVYYCQHYGSSQVTFGQGTKVEIKR
notes: scFv
For B17, the binding result in test [1] and in test [2] was “binds” throughout.

B18: Polypeptide No. 251 (scFv, V domains shown)
VH: QVQLVQSGAEVKKPGSSVKVSCKASGGTFSSDAINWVRQAPGQGLEWMGGIIPIVGTPTYAQKFQGRVTITADESTSTAYMELSSLRSEDTAVYYCAKGLAFGVFDGLDVWGQGTTVTVSS
VL: EIVMTQSPATLSVSPGERATLSCRASQSVSSNYLAWYQQKPGQAPRLLIYDVSTRATGIPARFSGSGSGTEFTLTISSLQSEDFAVYYCQQYGSSTLTFGGGTKVEIKR
notes: scFv
On to B18, for which the binding result in test [1] and in test [2] was “binds” each time.
